Legend:
[1] = biological target: D3H44 light chain Q124E_Q160E_T180E; assay: SMCA, LC-MS; change vs wild-type bispecific; competing light chain m31
[2] = biological target: D3H44 light chain Q124E_L135W_Q160E_T180E; assay: SMCA, LC-MS; change vs wild-type bispecific; competing light chain m28
[3] = biological target: D3H44 light chain Q124E_L135W_Q160E_T180E; assay: SMCA: H1, H2, L1, L2 co-expressed in CHO-3E7, protein A, LC-MS; competitor light chain m32
[4] = biological target: D3H44 light chain Q124E_L135W_Q160E_T180E; assay: SMCA, LC-MS of 4 co-expressed chains; competing light chain m28
[5] = biological target: D3H44 light chain Q124E_Q160E_T180E; assay: SMCA, LC-MS; change vs wild-type bispecific; competing light chain m48
[6] = biological target: D3H44 light chain Q124E_Q160E_T180E; assay: SMCA, LC-MS of 4 co-expressed chains; competing light chain m31
[7] = biological target: D3H44 light chain Q124E_Q160E_T180E; assay: SMCA: H1, H2, L1, L2 co-expressed in CHO-3E7, protein A, LC-MS; competitor light chain m37
[8] = biological target: D3H44 light chain Q124E_Q160E_T180E; assay: SMCA, LC-MS of 4 co-expressed chains; competing light chain m48
[9] = biological target: D3H44 light chain F116C_Q124R_T178R; assay: SMCA, LC-MS; change vs wild-type bispecific; competing light chain m32
[10] = biological target: D3H44 light chain F116C_Q124R_T178R; assay: SMCA, LC-MS of 4 co-expressed chains; competing light chain m32
[11] = biological target: D3H44 light chain F116C_Q124R_T178R; assay: SMCA: 2 heavy + 2 light chains co-expressed, protein A, LC-MS; competing light chain m12
[12] = biological target: Trastuzumab light chain Q38E_Q124E_Q160E_T180E; assay: SMCA: H1, H2, L1, L2 co-expressed in CHO-3E7, protein A purified, LC-MS; competing light chain m12
[13] = biological target: Trastuzumab light chain Q38E_Q124E_Q160E_T180E; assay: SMCA: H1, H2, L1, L2 co-expressed in CHO-3E7, protein A purified, LC-MS; competing light chain m14; against wild-type bispecific
[14] = biological target: Trastuzumab light chain Q38E_Q124E_Q160E_T180E; assay: SMCA: H1, H2, L1, L2 co-expressed in CHO-3E7, protein A purified, LC-MS; competing light chain m12; against wild-type bispecific
[15] = biological target: Trastuzumab light chain Q38E_Q124E_Q160E_T180E; assay: SMCA: H1, H2, L1, L2 co-expressed in CHO-3E7, protein A purified, LC-MS; competing light chain m14
[16] = biological target: D3H44 light chain Q38E_Q124E_Q160E_T180E; assay: SMCA: H1, H2, L1, L2 co-expressed in CHO-3E7, protein A, LC-MS; competitor light chain m47
[17] = biological target: D3H44 light chain Q38E_Q124E_Q160E_T180E; assay: SMCA: H1, H2, L1, L2 co-expressed in CHO-3E7, protein A purified, LC-MS; competing light chain m12
[18] = biological target: D3H44 light chain Q38E_Q124E_Q160E_T180E; assay: SMCA: H1, H2, L1, L2 co-expressed in CHO-3E7, protein A purified, LC-MS; competing light chain m12; *** estimated change against a similar wild-type construct
[19] = biological target: tissue factor (TF) antigen (UniProt P13726); assay: SPR, ProteOn XPR36; His-tagged Fab captured on anti-penta-His, TF injected; 1:1 fit; batch C (+); Set # read as 9787
[20] = biological target: tissue factor (TF) antigen (UniProt P13726); assay: SPR, ProteOn XPR36; His-tagged Fab captured on anti-penta-His, TF injected; 1:1 fit; batch C (+)
[21] = biological target: tissue factor (TF) antigen (UniProt P13726); assay: SPR as for KD; reference: wild-type D3H44 Fab; batch C (+); Set # read as 9787
[22] = biological target: tissue factor (TF) antigen (UniProt P13726); assay: SPR as for KD; reference: wild-type D3H44 Fab; batch C (+)
[23] = biological target: Cetuximab light chain Q124E_Q160E_T180E; assay: SMCA, LC-MS; change vs wild-type bispecific; competing light chain m15
[24] = biological target: Cetuximab light chain Q124E_L135W_Q160E_T180E; assay: SMCA, LC-MS; change vs wild-type bispecific; competing light chain m12
[25] = biological target: Cetuximab light chain Q38R_Q124R_Q160K_T178R; assay: SMCA: H1, H2, L1, L2 co-expressed in CHO-3E7, protein A purified, LC-MS; competing light chain m18; against wild-type bispecific
[26] = biological target: Cetuximab light chain Q38R_Q124R_Q160K_T178R; assay: SMCA: H1, H2, L1, L2 co-expressed in CHO-3E7, protein A purified, LC-MS; competing light chain m18
[27] = biological target: Cetuximab light chain Q38R_Q124R_Q160K_T178R; assay: SMCA: H1, H2, L1, L2 co-expressed in CHO-3E7, protein A purified, LC-MS; competing light chain m10; *** estimated change against a similar wild-type construct
[28] = biological target: D3H44 light chain Q38R_Q124R_Q160K_T178R; assay: SMCA: H1, H2, L1, L2 co-expressed in CHO-3E7, protein A purified, LC-MS; competing light chain m16
[29] = biological target: D3H44 light chain Q38R_Q124R_Q160K_T178R; assay: SMCA: H1, H2, L1, L2 co-expressed in CHO-3E7, protein A purified, LC-MS; competing light chain m18; against wild-type bispecific
[30] = biological target: D3H44 light chain Q38R_Q124R_Q160K_T178R; assay: SMCA: H1, H2, L1, L2 co-expressed in CHO-3E7, protein A purified, LC-MS; competing light chain m16; against wild-type bispecific
[31] = biological target: D3H44 light chain Q38R_Q124R_Q160K_T178R; assay: SMCA: H1, H2, L1, L2 co-expressed in CHO-3E7, protein A purified, LC-MS; competing light chain m18
[32] = biological target: D3H44 light chain Q38R_Q124R_Q160K_T178R; assay: SMCA: 2 heavy + 2 light chains co-expressed, protein A, LC-MS; competing light chain m20
[33] = biological target: Trastuzumab light chain Q38R_Q124R_Q160K_T178R; assay: SMCA: H1, H2, L1, L2 co-expressed in CHO-3E7, protein A purified, LC-MS; competing light chain m16
[34] = biological target: Cetuximab light chain F116C_Q124R_T178R; assay: SMCA: H1, H2, L1, L2 co-expressed in CHO-3E7, protein A purified, LC-MS; competing light chain m6; against wild-type bispecific
[35] = biological target: Cetuximab light chain F116C_Q124R_T178R; assay: SMCA, LC-MS; change vs wild-type bispecific; competing light chain m14
[36] = biological target: tissue factor (TF) antigen (UniProt P13726); assay: SPR (ProteOn), Fab captured via anti-penta-His, TF injected, 1:1 fit; reference wild-type D3H44 Fab
[37] = biological target: tissue factor (TF) antigen (UniProt P13726); assay: SPR (ProteOn), Fab captured via anti-penta-His, TF injected, 1:1 fit; estimated (*) from a Fab differing only in L chain tag
[38] = biological target: tissue factor (TF) antigen (UniProt P13726); assay: SPR (ProteOn), Fab captured via anti-penta-His, TF injected, 1:1 fit; reference wild-type D3H44 Fab; estimated (*) from a Fab differing only in L chain tag
[39] = biological target: tissue factor (TF) antigen (UniProt P13726); assay: SPR (ProteOn), Fab captured via anti-penta-His, TF injected, 1:1 fit
[40] = biological target: Cetuximab light chain Q38E_Q124E_Q160E_T180E; assay: SMCA: H1, H2, L1, L2 co-expressed in CHO-3E7, protein A purified, LC-MS; competing light chain m14; against wild-type bispecific
[41] = biological target: D3H44 light chain Q124E_V133E; assay: SMCA, LC-MS of 4 co-expressed chains; competing light chain m26
[42] = biological target: D3H44 light chain Q124E_V133E; assay: SMCA: LC-MS of protein A purified product after co-expression of H1, H2, L1, L2 in CHO-3E7; competing light chain m52
[43] = biological target: D3H44 light chain Q124E_V133E; assay: SMCA, LC-MS; estimated change vs similar wild type (***); competing light chain m26
[44] = biological target: D3H44 light chain Q124E_V133E; assay: SMCA, LC-MS of 4 co-expressed chains; competing light chain m42
[45] = biological target: D3H44 light chain Q124E_V133E; assay: SMCA, LC-MS; change vs wild-type bispecific; competing light chain m42
[46] = biological target: D3H44 light chain Q124E_V133E; assay: SMCA: 2 heavy + 2 light chains co-expressed, protein A, LC-MS; competing light chain m45

“D3H44 heavy chain Q179K (from UniProt P0DOX5 2-448)” was tested, and the Change in % H1L1 Pairing (over all H1 species) with respect to wild type [1] was 52.5%, the Change in % H1L1 Pairing (over all H1 species) with respect to wild type [2] was 38.1% and the % H1L1 Pairing (over all H1 species) [3] was 100%. The % H1L1 Pairing (over all H1 species) [4] was 100%, the Change in % H1L1 Pairing (over all H1 species) with respect to wild type [5] was 62.7% and the % H1L1 Pairing (over all H1 species) [6] was 100%. The % H1L1 Pairing (over all H1 species) [7] was 100% and the % H1L1 Pairing (over all H1 species) [8] was 100%.
Substance “D3H44 heavy chain A139C_L143E_K145T_Q179E (from UniProt P0DOX5 2-448)” has a Change in % H1L1 Pairing (over all H1 species) with respect to wild type [9] of 38.1%, a % H1L1 Pairing (over all H1 species) [10] of 100% and a % H1L1 Pairing (over all H1 species) [11] of 100%.
With “Trastuzumab heavy chain Q39R_H172R_Q179K (from UniProt P0DOX5 2-448)” the % H1L1 Pairing (over all H1 species) [12] was 100%, the Change in % H2L2 Pairing (over all H2 species) with respect to wild type [13] was 7% and the Change in % H1L1 Pairing (over all H1 species) with respect to wild type [14] was 6%. It also gave a % H2L2 Pairing (over all H2 species) [15] of 100%.
“D3H44 heavy chain Q39R_H172R_Q179K (from UniProt P0DOX5 2-448)” was tested, and the % H1L1 Pairing (over all H1 species) [16] was 100%, the % H1L1 Pairing (over all H1 species) [17] was 100% and the Change in % H1L1 Pairing (over all H1 species) with respect to wild type [18] was 43.3%.
Substance “D3H44 Fab heterodimer, H1L1 of LCCA Sets # 9794, 9796, 9797, 9792, 9789 and 9787 (H1 Q179K; L1 Q124E_T180E)” has a Kd [19] of 110 pM, a Kd [20] of 110 pM and a change in median KD compared to wild type, -(log(KD design)-log(KD wt)) [21] of 0.16. It also gave a change in median KD compared to wild type, -(log(KD design)-log(KD wt)) [22] of 0.16.
Substance Cetuximab heavy chain Q179K has a Change in % H2L2 Pairing (over all H2 species) with respect to wild type [23] of 0% and a Change in % H2L2 Pairing (over all H2 species) with respect to wild type [24] of 1.7%.
Substance “Cetuximab heavy chain Q39E_L143E_K145T_Q179E” has a Change in % H2L2 Pairing (over all H2 species) with respect to wild type [25] of 22.7%, a % H2L2 Pairing (over all H2 species) [26] of 52.3% and a Change in % H2L2 Pairing (over all H2 species) with respect to wild type [27] of 1.6%.
Substance “D3H44 heavy chain Q39E_L143E_K145T_Q179E (from UniProt P0DOX5 2-448)” has a % H1L1 Pairing (over all H1 species) [28] of 100%, a Change in % H1L1 Pairing (over all H1 species) with respect to wild type [29] of 46% and a Change in % H1L1 Pairing (over all H1 species) with respect to wild type [30] of 38.1%. The % H1L1 Pairing (over all H1 species) [31] was 86.6% and the % H1L1 Pairing (over all H1 species) [32] was 100%.
Work on “Trastuzumab heavy chain Q39E_L143E_K145T_Q179E (from UniProt P0DOX5 2-448)” yielded a % H1L1 Pairing (over all H1 species) [33] of 100%.
In the case of “Cetuximab heavy chain A139C_L143E_K145T_Q179E”, the Change in % H2L2 Pairing (over all H2 species) with respect to wild type [34] is reported as 3% and the Change in % H2L2 Pairing (over all H2 species) with respect to wild type [35] is reported as 0%.
“D3H44 Fab heterodimer (H1L1) of LCCA Sets # 9683, 9684: H1 L143E_K145T_Q179E, L1 T178R” was tested, and the change in median KD compared to wild type, -(log(KD design)-log(KD wt)) [36] was -0.28, the Kd [37] was 300 pM and the change in median KD compared to wild type, -(log(KD design)-log(KD wt)) [38] was -0.28. It also gave a Kd [39] of 300 pM.
Cetuximab heavy chain Q39R_H172R_Q179K was tested, and the Change in % H2L2 Pairing (over all H2 species) with respect to wild type [40] was 0.6%.
With “D3H44 heavy chain L143R (from UniProt P0DOX5 2-448)” the % H1L1 Pairing (over all H1 species) [41] was 100%, the % H1L1 Pairing (over all H1 species) [42] was 100% and the Change in % H1L1 Pairing (over all H1 species) with respect to wild type [43] was 43.3%. The % H1L1 Pairing (over all H1 species) [44] was 97.1%, the Change in % H1L1 Pairing (over all H1 species) with respect to wild type [45] was 59.8% and the % H1L1 Pairing (over all H1 species) [46] was 100%.

Reference: patent US11306156
